target: HLA-A*02:01 (Homo sapiens, UniProt P04439, D140Y/D185E/D98H/E176V/E277Q/G131W/G231S/I119V/I121R/I166T/I218V/L300P/L318F/N151K/N90K/P208A/P217A/Q86G/Q94H/R138H/R169H/T345S); assay: MHC binding assay (UV-ligand exchange, β2m ELISA, peptide exchange yield); conditions: MHC class I binding score; binding to HLA-A*02:01 ranged by peptide exchange yield (UV-ligand exchange, β2m ELISA)
In short: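 Binding is expressed as peptide exchange yield: stabilized MHC complexes were quantified by β2m ELISA, with a 450 nm TMB read-out on streptavidin-coated plates. Complexes came from UV-ligand exchange, where UV irradiation cleaves a photolabile peptide so the candidate peptide can load.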

Row | Substance | Peptide exchange
1 | 380 (TLIEDEIATI; listed as Homo sapiens) [compound 380] | “++” (≧20% = ++)
2 | 335 (YSLSSVVTV; listed as Homo sapiens) [compound 335] | “+++” (≧50 = +++)
3 | 432 (TLIEESAKV; listed as Homo sapiens) [compound 432] | “++” (≧20% = ++)
4 | 252 (LLIGTDVSL; listed as Homo sapiens) [compound 252] | “+++” (≧50 = +++)
5 | 571 (LLLTTIPQI; listed as Homo sapiens) [compound 571] | “+++” (≧50 = +++)
6 | 227 (ALMNTLLYL; listed as Homo sapiens) [compound 227] | “++” (≧20% = ++)
7 | 62 (VLLDVSAGQLLM; listed as Homo sapiens) [compound 62] | “++++” (≧75% = ++++)
8 | 129 (GLLDGGVDILL; listed as Homo sapiens) [compound 129] | “+++” (≧50 = +++)
9 | 216 (NLWEDPYYL; listed as Homo sapiens) [compound 216] | “+++” (≧50 = +++)
10 | 444 (GLLRDEALAEV; listed as Homo sapiens) [compound 444] | “+++” (≧50 = +++)
11 | 503 (SLNHFTHSV; listed as Homo sapiens) [compound 503] | “+++” (≧50 = +++)
12 | 479 (SLFGNSGILENV; listed as Homo sapiens) [compound 479] | “+++” (≧50 = +++)
13 | 365 (YVIDQGETDVYV; listed as Homo sapiens) [compound 365] | “+++” (≧50 = +++)
14 | 160 (FLFDEEIEQI; listed as Homo sapiens) [compound 160] | “+++” (≧50 = +++)
15 | 601 (SAFPFPVTV; listed as Homo sapiens) [compound 601] | “+++” (≧50 = +++)
16 | 357 (SMHDLVLQV; listed as Homo sapiens) [compound 357] | “+++” (≧50 = +++)
17 | 584 (ALAEVAAMENV; listed as Homo sapiens) [compound 584] | “+++” (≧50 = +++)
18 | 261 (YVLEFLEEI; listed as Homo sapiens) [compound 261] | “++” (≧20% = ++)

Row | Substance | Peptide exchange
19 | 525 (VLLEAGEGLVTI; listed as Homo sapiens) [compound 525] | “+++” (≧50 = +++)
20 | 450 (FMIDASVHPTL; listed as Homo sapiens) [compound 450] | “+++” (≧50 = +++)
21 | 302 (ALLQEGEVYSA; listed as Homo sapiens) [compound 302] | “+++” (≧50 = +++)
22 | 89 (YILPTETIYV; listed as Homo sapiens) [compound 89] | “++++” (≧75% = ++++)
23 | 586 (KLKPGDLVGV; listed as Homo sapiens) [compound 586] | “+++” (≧50 = +++)
24 | 121 (GVVDPRAISVL; listed as Homo sapiens) [compound 121] | “++” (≧20% = ++)
25 | 52 (FLLAHGLGFLL; listed as Homo sapiens) [compound 52] | “++++” (≧75% = ++++)
26 | 347 (SLFKHDPAAWEA; listed as Homo sapiens) [compound 347] | “++++” (≧75% = ++++)
27 | 138 (YQYPRAILSV; listed as Homo sapiens) [compound 138] | “+++” (≧50 = +++)
28 | 271 (LVYPLELYPA; listed as Homo sapiens) [compound 271] | “+++” (≧50 = +++)
29 | 614 (LLLPDQPPYHL; listed as Homo sapiens) [compound 614] | “+++” (≧50 = +++)
30 | 326 (FLPEALDFV; listed as Homo sapiens) [compound 326] | “+++” (≧50 = +++)
31 | 492 (SLFDGFADGLGV; listed as Homo sapiens) [compound 492] | “+++” (≧50 = +++)
32 | 235 (YLNDLHEVLL; listed as Homo sapiens) [compound 235] | “++++” (≧75% = ++++)
33 | 569 (KLVDRTWTL; listed as Homo sapiens) [compound 569] | “+++” (≧50 = +++)
34 | 170 (RLQETLSAA; listed as Homo sapiens) [compound 170] | “+++” (≧50 = +++)
35 | 263 (LLVSNLDFGV; listed as Homo sapiens) [compound 263] | “+++” (≧50 = +++)
36 | 177 (YLLPEEYTSTL; listed as Homo sapiens) [compound 177] | “++++” (≧75% = ++++)

The remaining lines, values ahead:

Row | Peptide exchange | Substance
37 | “+++” (≧50 = +++) | 619 (ALQDRVPLA; listed as Homo sapiens) [compound 619]
38 | “+++” (≧50 = +++) | 561 (YLQLTQSEL; listed as Homo sapiens) [compound 561]
39 | “+++” (≧50 = +++) | 401 (ILLDDTGLAYI; listed as Homo sapiens) [compound 401]
40 | “+++” (≧50 = +++) | 477 (ALLPASGQIAL; listed as Homo sapiens) [compound 477]
41 | “+++” (≧50 = +++) | 530 (VMYADIGGMDI; listed as Homo sapiens) [compound 530]
42 | “++” (≧20% = ++) | 124 (ALYETELADA; listed as Homo sapiens) [compound 124]
43 | “+++” (≧50 = +++) | 103 (TLAEEVVAL; listed as Homo sapiens) [compound 103]
44 | “++” (≧20% = ++) | 379 (IMEGTLTRV; listed as Homo sapiens) [compound 379]
45 | “++” (≧20% = ++) | 504 (GLSDGNPSL; listed as Homo sapiens) [compound 504]
46 | “++” (≧20% = ++) | 447 (QLVPALAKV; listed as Homo sapiens) [compound 447]
47 | “++” (≧20% = ++) | 253 (GLDAATATV; listed as Homo sapiens) [compound 253]
48 | “+++” (≧50 = +++) | 174 (ALAQYLITA; listed as Homo sapiens) [compound 174]
49 | “+++” (≧50 = +++) | 541 (SMLEPVPEL; listed as Homo sapiens) [compound 541]
50 | “++” (≧20% = ++) | 133 (KVLSNIHTV; listed as Homo sapiens) [compound 133]
51 | “++” (≧20% = ++) | 453 (KLLEATSAV; listed as Homo sapiens) [compound 453]
52 | “+++” (≧50 = +++) | 311 (RLYTGMHTV; listed as Homo sapiens) [compound 311]
53 | “+++” (≧50 = +++) | 484 (SLIEKVTQL; listed as Homo sapiens) [compound 484]
54 | “+++” (≧50 = +++) | 298 (VMITKLVEV; listed as Homo sapiens) [compound 298]
55 | “+++” (≧50 = +++) | 96 (YIFTDNPAAV; listed as Homo sapiens) [compound 96]
56 | “+++” (≧50 = +++) | 299 (YLLETSGNL; listed as Homo sapiens) [compound 299]
57 | “++++” (≧75% = ++++) | 55 (SLLDLETLSL; listed as Homo sapiens) [compound 55]
58 | “+++” (≧50 = +++) | 225 (SLLKVLPAL; listed as Homo sapiens) [compound 225]

Source: patent US20170002055A1, “Novel peptides and combination of peptides for use in immunotherapy against ovarian cancer and other cancers” (immatics biotechnologies GmbH, priority 2015, published 2017)
